Assay results from publication PMC7311171 (2020).

B1: BBS7, in vitro translated, tagged with a 6xMyc epitope [not stated] / GST-SMO^H8 (GST fused to the first 19 amino acids of SMO^Ctail, aa 543–559) [mouse] (parent complex)
chain 1: MDLILNRMDYLQVGVTSQKTMKLIPASRHRATQKVVIGDHDGVVMCFGMKKGEAAAVFKTLPGPKIARLELGGVINTPQEKIFIAAASEIRGFTKRGKQFLSFETNLTESIKAMHISGSDLFLSASYIYNHYCDCKDQHYYLSGDKINDVICLPVERLSRITPVLACQDRVLRVLQGSDVMYAVEVPGPPTVLALHNGNGGDSGEDLLFGTSDGKLALIQITTSKPVRKWEIQNEKKRGGILCIDSFDIVGDGVKDLLVGRDDGMVEVYSFDNANEPVLRFDQMLSESVTSIQGGCVGKDSYDEIVVSTYSGWVTGLTTEPIHKESGPGEELKINQEMQNKISSLRNELEHLQYKVLQERENYQQSSQSSKAKSAVPSFGINDKFTLNKDDASYSLILEVQTAIDNVLIQSDVPIDLLDVDKNSAVVSFSSCDSESNDNFLLATYRCQADTTRLELKIRSIEGQYGTLQAYVTPRIQPKTCQVRQYHIKPLSLHQRTHFIDHDRPMNTLTLTGQFSFAEVHSWVVFCLPEVPEKPPAGECVTFYFQNTFLDTQLESTYRKGEGVFKSDNISTISILKDVLSKEATKRKINLNISYEINEVSVKHTLKLIHPKLEYQLLLAKKVQLIDALKELQIHEGNTNFLIPEYHCILEEADHLQEEYKKQPAHLERLYG
chain 2: KATLLIWRRTWCRLTGH

Variants of: B1
Test: GST capture assay (pull-down) of in vitro translated Myc-BBS7, quantified from anti-Myc blot; parent: 4.4; read off a plot

| response | Variant |
| --- | --- |
| ~3.6 ‰ | chain 2 KATLLIWRRTACRLTGH |
| ~0.12 ‰ | chain 2 KATLLIAARTAARLTGH |
| ~0.28 ‰ | chain 2 KATLLIARRTACRLTGH |

More lines, now with the values behind:

| Variant | response |
| --- | --- |
| chain 2 KATLLIARRTWCRLTGH | ~0.85 ‰ |
| chain 2 KATLLIWRRTWARLTGH | ~4.9 ‰ |
| chain 2 KATLLIWARTWCRLTGH | ~1.3 ‰ |
| chain 2 KATLLIWARTWARLTGH | ~0.9 ‰ |
